Sequences and labels used below:
B1: anti-CD38 scFv of SEQ ID NO:109 (scFv)
scFv: EGQLLESGGGLVQPGGSLRLSCAASGFTFSSFAMSWVRQAPGKGLEWVSTISGSGGSTNYADSVKGRFTISRDNSKKTLYLQMSSLRAEDTAVFYCAKGPTSPYSYYMDVWGKGTTVTVSSGGGGSGGGGSGGGGSEIVMTQSPATLSLSPGERATLSCRASQSVSSSFLSWFQQKPGQAPRLLIYGASTRATGIPARFSGSGSGTDFTLTISSLQPEDFAVYYCQQDYNLPYTFGQGTKLEIK
notes: One of the 12 selected scFvs; Also tested inside a CAR
B2: anti-CD38 scFv of SEQ ID NO:110 (scFv)
scFv: QVQLVQSGAEVKKPGASVKVSCKASGYTFNRYVISWVRQAPGQGLEWMGWIRAYNGNTNYAQKFQGRVTMTTDTSTSTAYMELRSLRSDDTAVYYCARDSTTGTTEGMDVWGKGTTVTVSSGGGGSGGGGSGGGGSEIVMTQSPATLSLSPGERATLSCRASQSVSSSYLSWYQQKPGQAPRLLIYGASTRATGIPARFSGSGSGTDFTLTISSLQPEDFAVYYCQQDYNLPLTFGGGTKVEIN
notes: as for B1
B3: anti-CD38 scFv of SEQ ID NO:108 (scFv)
scFv: EVQLLESGGGLVQPGGSLRLSCAASGFTFSSYAMTWVRQAPGKGLEWVSAISPSGGSTFYADSVKGRFTISRDNSKNTLYLEMNSLRAEDTAVYYCAKDLDFYGSGSYSSWGKGTTVTVSSGGGGSGGGGSGGGGSEIVMTQSPATLSLSPGERATLSCRASQSVSNSYLSWYQQKPGQAPRLLIFGTSTRATGIPARFSGSGSGTDFTLTISSLQPEDFAVYHCQQDYKLPYTFGQGTKLEIK
notes: One of the 12 selected fully human scFvs; Also tested inside a CAR (CD8a hinge and transmembrane, OX40, CD3zeta; FLAG tag in Jurkat cells)
B4: anti-CD38 scFv of SEQ ID NO:112 (scFv)
scFv: QVQLVQSGAEVKKPGASVKVSCKASGFTFTSYGFSWVRQAPGQGLEWMGWISAYSGNTKYAQKFQGRVTMTTDTSTSTAYMELRSLRSDDTAVYYCAREGGTTGTFYYYYYMDVWGKGTTVTVSSGGGGSGGGGSGGGGSEIVLTQSPDFQSVTPKEKVTITCRASQSIGRSLHWYQQKPDQSPKLLIKYASQSFSGVPSRFSGSGSGTDFTLTINSLEAEDAATYYCLQSSSLPLTFGGGTKVEIK
notes: as for B1
B5: anti-CD38 scFv of SEQ ID NO:119 (scFv)
scFv: EVQLLESGGGLVQPGGSLRLSCAASGFTFSNYDMSWVRQAPGKGLEWVSTTSASGGNTYYADSVRGRFTISRDNSKNTLYLQMNSLRAEDTAVYYCAKEGDGYNPFRDHYYYFMDVWGKGTTVTVSSGGGGSGGGGSGGGGSETVMTQSPAALSVSPGERATLSCRASQSVSSNLAWYQQKPGQAPRLLIYGASTRATGIPARFSGSGSGTEFTLTISSLQSEDFAVYYCQQYNNWPPYTFGQGTKLEIK
notes: as for B1
B6: anti-CD38 scFv of SEQ ID NO:117 (scFv)
scFv: EVQLVESGGGVVRPGGSLRLSCAASGFTFDDYGMSWVRQAPGKGLEWVSGINWNGGSTGYADSVKGRFTISRDNAKNSLYLQMNSLRAEDTAFYHCAREGDGYKGTFYYYYYMDVWGKGTTVTVSSGGGGSGGGGSGGGGSDIQLTQSPSFLSASVGDRVTITCRASQGIFNYLAWYQQKPGKAPNLLIYAASNLQSGVPSRFSGSGSGTEFTLTISSLQPEDFATYYCQQLNSYPLTFGGGTKVEIK
notes: as for B1
B7: anti-CD38 scFv of SEQ ID NO:111 (scFv)
scFv: EAQLLESGGDLVQPGGSLRLSCAASGFTFSSYAMSWVRQAPGKGLEWVSTISVSGDSTYYADSVKGRFTISRDNSKNTLYLQMNSLRAEDTAVYYCAKALLYQGLRMDVWGKGTTVTVSSGGGGSGGGGSGGGGSDIQMTQSPSSLSASVGDRVTITCRASQGIATWLAWYQQKPEKAPKSLIYAASSLQSGVPSRFSGSGSGTDFTLSISSLQPEDFATYYCQQYNSYPLTFGGGTKVEIK
notes: as for B1
B8: anti-CD38 scFv of SEQ ID NO:116 (scFv)
scFv: EVQLVESGGGVVRPGGSLRLSCAASGFTFDDYGMSWVRQAPGKGLEWVSGINWNGGSTDYAASVKGRFTISRDNAKNSLYLQMNSLRAEDTALYHCARVFCTNGVCYPYSYYYFMDVWGKGTTVTVSSGGGGSGGGGSGGGGSEIVMTQSPATLSVSPGERATLSCRASQSVSSNLAWYQQKPGQAPRLLTYGASTRATGIPARFSGSGSGTEFTLTISSLQSEDFAVYYCQQYNNWPYTFGQGTRLEIK
notes: as for B1

This assay has as its target T1, human CD38 on cells (human CD38-overexpressing Jurkat cells); CD38-expressing MM.1R, THP-1 and MM.1S target … (human, UniProt P28907 1-300).
T1 construct: also called CD38+ cells
The assay can be described thus: summing-up sentence of the examples (cell binding, SPR, CAR format).
In the case of B1, the binding result is recorded as “binds”. Consider B2, for which the binding result is given as “binds”.

Turning to B3, the binding result is “binds”.

As to B4, the binding result was “binds”. Take B5: the binding result was “binds”. B6: the binding result is recorded as “binds”. On to B7, for which the binding result is reported as “binds”. For B8 the value was “binds”.

The record behind these values is patent publication EP4688860A2 (dated 2026).
